doi:10.1101/2021.03.15.435484, “Functional development of a V3-specific broadly neutralizing antibody isolated from a case of HIV superinfection” (bioRxiv, 2021)

Molecular target: BG505.SOSIP.664 Env trimer (heterologous clade A native-like trimer containing the N332 glycan) (HIV-1 clade A, isolate BG505 …, stabilised)
Assay: cell-based or functional assay

B1: QA013.2 CDRH3 point mutant antibody D106V (mature VH D106V paired with the mature light chain) (antibody, V domains shown)
VH: DIRIAESGGGLVQPGESLRLACEIIELGFRRAWTTWVRQAPGKGLEWVADINEDGSEKKYGPSVTGRFTISRDNGKNLVFLQMNSLRVEDTATYYCAREAYHLVYVDRIPRGNWFDPWGPGTLVTVSS
VL: QSVLTQPPSVSGAPGQRVVISCTGSRSNIGAGYDVHWYQQSPGKVPRIIIYGSNSRSSGVPARFSGSKSGTSASLAITGLQAEDEADYYCQSYDTTLTASVFGGGTKVTVL
average fold increase in neutralisation IC50 across all tested pseudoviruses relative to the mature bnAb (TZM-bl assay): 40 fold
